According to patent publication US20230380451A1, “MEANS AND METHODS TO DETOXIFY MYCOTOXINS” (priority 2020, published 2023):

Assays:
[1] = Storage stability at different pH values, residual DON transformation activity; type: biochemical; settings: for Relative DON-transformation activity: storage at 30° C.
Description: (§1) To determine the transformation of DON to epi-THS by Akr I-III, described herein, the following assay was performed. An assay buffer was prepared containing 40 ppm DON, 1 mM NADPH in Teorell Stenhagen (TS) buffer, pH 6.0 (Östling and Virtama, Acta Physiologica Scandinavica, 1946, 11:4, 289-293). Tubes containing the assay buffer were transferred in a heating block at 30° C. The reaction was started by addition of Akr I-III to a final concentration of 200 nM in a final reaction volume of 200 μL. Samples were taken before reaction start, and 2, 5, 10, 15 and 20 min after reaction start. DON transformation reactions in these samples were stopped by mixing with absolute methanol at a 1:2 ratio, followed by a 1:100 dilution with 40% methanol. The concentrations of DON and epi-THS in the samples were determined with liquid chromatography-mass spectrometry (LC-MS) on a Sciex 5500 triple quadrupole mass spectrometer coupled to Agilent 1290 series UHPLC system, using the following MS parameters: Acquisition duration: 4 min; Scan Type: MRM (MRM); Polarity: Negative; Ion Source: Turbo Spray.
The storage stability of Akr I-III at different pH values was tested by incubating 1 μM enzyme in TS buffer solutions with a pH of 3.0-10.0 for 4 h at 30° C. in standard 1.5 ml Eppendorf tubes. Every hour, a DON transformation assay was conducted as described in Example 3. The starting activity at time 0 min was set to 100% and the relative residual activities were determined throughout the incubation. For the DON transformation assays, 80 μl of the storage solution were added to an assay reaction with a final volume of 400 μl, which corresponds to a 1:5 dilution of the storage solution. Akr I retained more than 93% activity during 4 hours at 30° C. from pH 4.0-10.0. Akr II retained 30% to 93% activity during 4 hours at 30° C. from pH […] retained 27% to 85% activity during 4 hours at 30° C. from pH 4.0-9.0. Akr I-III retained more than 40% of their activity for 4 hours at 30° C. from pH 4.0 to pH 8.0.

[2] = Kinetic parameters of DON transformation (Michaelis-Menten fit); type: biochemical; settings: 200 nM enzyme, TS buffer pH 6.0, 1 mM NADPH
Description: as §1
Kinetic parameters were determined by performing the DON transformation assay as described in Example 3. Akr I-III were used at a final concentration of 200 nM in Teorell Stenhagen (TS) buffer, pH 6.0 (Ostling and Virtama, Acta Physiologica Scandinavica, 1946, 11:4, 289-293) further containing 1 mM NADPH and DON at a concentration of either 3.38 μM, 33.78 μM, 135.14 μM, 270.27 μM or 1182.43 μM. The observed reaction rates and the corresponding DON concentrations were fitted to the Michaelis-Menten function used to describe enzyme kinetics. The fitting was done using the program SigmaPlot (Systat Software Inc.) to calculate the maximum DON transformation rate of Akr I-III in the assay (Vmax), the Michaelis constant (KM) and the turnover number (kcat). […].

B1: Akr I: artificial amino acid sequence, variant of a wild type aldo-keto reductase (protein)
chain: MRTTEISQGLKVSNLCIGAGPLGGMPTAFGYDVSEERGIATVQAVFDSPINFMDTSSEYGDSEVRIGKVIREGRMPKGFVIATKADAEGDGTARRGDFSAKQVRASFELSLERLGLTHIDVYFLHDPEKFPFEHVMARGGAMEELLRLKDEGLVGLVGVAGGDVVEMARYVDTGNLDILLNYGRYTLLDRSADSLIDKASDAGMAFLNAGPYASGLLAAPRGGSAWYQYAPPNADALQAVDQLHELCESFDVSLRSVALQFSMRDPRITSTVVGLSRPERVRALLDDAAAEIPAELWDQLPAPLNLPWNSLA
modifications: ArkI
**Q.** Which retained activity ([1]; during 4 hours at 30° C. from pH 4.0-10.0) does the source give for B1 here?
**A.** The retained activity was “more than 93%”.

**Q.** What about the “Relative DON-transformation activity” value ([1]; pH 3.0, 0 h (starting activity set to 100%)) of the same molecule?
**A.** The value was 100.0%.

**Q.** What about the “Relative DON-transformation activity” value ([1]; pH 3.0, 1 h) of the same molecule?
**A.** The value was 0.0%.

**Q.** And the “Relative DON-transformation activity” value ([1]; pH 3.0, 2 h)?
**A.** The value was 0.0%.

**Q.** What about the “Relative DON-transformation activity” value ([1]; pH 3.0, 3 h) of the same molecule?
**A.** The value was 0.0%.

**Q.** What about the “Relative DON-transformation activity” value ([1]; pH 3.0, 4 h) of the same molecule?
**A.** The value was 0.0%.

**Q.** What about the “Relative DON-transformation activity” value ([1]; pH 4.0, 0 h (starting activity set to 100%)) of the same molecule?
**A.** Its value is 100.0%.

**Q.** What about the “Relative DON-transformation activity” value ([1]; pH 4.0, 1 h) of the same molecule?
**A.** The value was 100.6%.

**Q.** What about the “Relative DON-transformation activity” value ([1]; pH 4.0, 2 h) of the same molecule?
**A.** Its value is 102.8%.

**Q.** And the “Relative DON-transformation activity” value ([1]; pH 4.0, 3 h)?
**A.** Its value is 101.5%.

**Q.** And the “Relative DON-transformation activity” value ([1]; pH 4.0, 4 h)?
**A.** The value was 93.8%.

**Q.** What about the “Relative DON-transformation activity” value ([1]; pH 5.0, 0 h (starting activity set to 100%)) of the same molecule?
**A.** The value was 100.0%.

**Q.** And the “Relative DON-transformation activity” value ([1]; pH 5.0, 1 h)?
**A.** Its value is 101.0%.

**Q.** What about the “Relative DON-transformation activity” value ([1]; pH 5.0, 2 h) of the same molecule?
**A.** Its value is 101.6%.

**Q.** And the “Relative DON-transformation activity” value ([1]; pH 5.0, 3 h)?
**A.** Its value is 100.8%.

**Q.** What about the “Relative DON-transformation activity” value ([1]; pH 5.0, 4 h) of the same molecule?
**A.** The value was 97.9%.

**Q.** What about the “Relative DON-transformation activity” value ([1]; pH 6.0, 0 h (starting activity set to 100%)) of the same molecule?
**A.** The value was 100.0%.

**Q.** And the “Relative DON-transformation activity” value ([1]; pH 6.0, 1 h)?
**A.** Its value is 100.6%.

**Q.** What about the “Relative DON-transformation activity” value ([1]; pH 6.0, 2 h) of the same molecule?
**A.** Its value is 101.9%.

**Q.** And the “Relative DON-transformation activity” value ([1]; pH 6.0, 3 h)?
**A.** Its value is 101.1%.

**Q.** What about the “Relative DON-transformation activity” value ([1]; pH 6.0, 4 h) of the same molecule?
**A.** The value was 100.7%.

**Q.** And the “Relative DON-transformation activity” value ([1]; pH 7.0.0, 0 h (starting activity set to 100%))?
**A.** The value was 100.0%.

**Q.** What about the “Relative DON-transformation activity” value ([1]; pH 7.0.0, 1 h) of the same molecule?
**A.** The value was 99.6%.

**Q.** What about the “Relative DON-transformation activity” value ([1]; pH 7.0.0, 2 h) of the same molecule?
**A.** Its value is 101.4%.

**Q.** What about the “Relative DON-transformation activity” value ([1]; pH 7.0.0, 3 h) of the same molecule?
**A.** The value was 99.7%.

**Q.** What about the “Relative DON-transformation activity” value ([1]; pH 7.0.0, 4 h) of the same molecule?
**A.** Its value is 96.1%.

**Q.** What about the “Relative DON-transformation activity” value ([1]; pH 8.0, 0 h (starting activity set to 100%)) of the same molecule?
**A.** The value was 100.0%.

**Q.** And the “Relative DON-transformation activity” value ([1]; pH 8.0, 1 h)?
**A.** Its value is 101.5%.

**Q.** What about the “Relative DON-transformation activity” value ([1]; pH 8.0, 2 h) of the same molecule?
**A.** The value was 102.4%.

**Q.** And the “Relative DON-transformation activity” value ([1]; pH 8.0, 3 h)?
**A.** Its value is 101.1%.

**Q.** What about the “Relative DON-transformation activity” value ([1]; pH 8.0, 4 h) of the same molecule?
**A.** Its value is 101.2%.

**Q.** What about the “Relative DON-transformation activity” value ([1]; pH 9.0.0, 0 h (starting activity set to 100%)) of the same molecule?
**A.** Its value is 100.0%.

**Q.** What about the “Relative DON-transformation activity” value ([1]; pH 9.0.0, 1 h) of the same molecule?
**A.** Its value is 100.9%.

**Q.** And the “Relative DON-transformation activity” value ([1]; pH 9.0.0, 2 h)?
**A.** Its value is 101.0%.

**Q.** And the “Relative DON-transformation activity” value ([1]; pH 9.0.0, 3 h)?
**A.** Its value is 100.8%.

**Q.** What about the “Relative DON-transformation activity” value ([1]; pH 9.0.0, 4 h) of the same molecule?
**A.** Its value is 96.6%.

**Q.** And the “Relative DON-transformation activity” value ([1]; pH 10.0, 0 h (starting activity set to 100%))?
**A.** The value was 100.0%.

**Q.** And the “Relative DON-transformation activity” value ([1]; pH 10.0, 1 h)?
**A.** The value was 100.5%.

**Q.** What about the “Relative DON-transformation activity” value ([1]; pH 10.0, 2 h) of the same molecule?
**A.** Its value is 101.4%.

**Q.** What about the “Relative DON-transformation activity” value ([1]; pH 10.0, 3 h) of the same molecule?
**A.** The value was 99.8%.

**Q.** And the “Relative DON-transformation activity” value ([1]; pH 10.0, 4 h)?
**A.** The value was 96.0%.

**Q.** What about the “Vmax (maximum DON transformation rate)” value [2] of the same molecule?
**A.** The value was 8471 U/mg.

**Q.** What about the “kcat (turnover number)” value [2] of the same molecule?
**A.** The value was 5.08 s⁻¹.

**Q.** And the Km ([2]; substrate DON, read-out: KM (Michaelis constant))?
**A.** The Km was 143 µM.
